Consider two molecules from patent US20150080242A1 (UNIVERSITY OF MASSACHUSETTS, published 2015).

In assay [1] the target is OmpG-PEG2-biotin (Escherichia coli) (UniProt P76045). The experiment in a line: cell-based or functional assay.
Assay [2] has the same target. As to the kind of experiment: single channel recording of one OmpG-PEG2-biotin pore, 1 nM mAb.
Assay [3] shares this target. As to the kind of experiment: single channel recording of one OmpG-PEG2-biotin pore, from koff and kon.
For assay [4] the target is unchanged. As to the kind of experiment: single channel recording of one OmpG-PEG2-biotin pore, inter-event intervals against mAb concentration.
Assay [5] shares this target. As to the kind of experiment: single channel recording of one OmpG-PEG2-biotin pore in a planar lipid bilayer, dwell times of binding events.
Assay [6] deals with T1, BSA (UniProt P02769 25-607).
T1 construct: Control protein
T1 sequence (P02769 25-607 limits assumed): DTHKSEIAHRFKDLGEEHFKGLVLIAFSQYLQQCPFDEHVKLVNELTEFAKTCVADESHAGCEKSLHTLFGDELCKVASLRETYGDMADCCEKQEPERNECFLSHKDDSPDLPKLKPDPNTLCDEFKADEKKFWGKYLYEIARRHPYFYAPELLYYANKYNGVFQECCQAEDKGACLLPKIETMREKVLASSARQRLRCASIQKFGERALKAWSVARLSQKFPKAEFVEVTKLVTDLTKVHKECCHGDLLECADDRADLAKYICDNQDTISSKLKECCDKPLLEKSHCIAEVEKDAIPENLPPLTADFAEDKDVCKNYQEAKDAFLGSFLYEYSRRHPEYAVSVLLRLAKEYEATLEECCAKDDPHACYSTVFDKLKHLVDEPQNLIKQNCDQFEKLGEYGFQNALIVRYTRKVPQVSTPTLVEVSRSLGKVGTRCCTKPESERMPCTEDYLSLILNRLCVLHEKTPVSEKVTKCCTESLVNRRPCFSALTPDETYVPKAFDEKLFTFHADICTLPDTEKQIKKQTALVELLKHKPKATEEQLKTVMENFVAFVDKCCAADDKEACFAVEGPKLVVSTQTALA
As to the kind of experiment: single channel recording in planar lipid bilayer.

In assay [1], “Mouse anti-biotin monoclonal antibody (MS-1048-P1, Thermo Scientific)” yielded an Event frequency of 201 s⁻¹, a Gating duration of 4.2 s, an Inter-event duration of 3.67 s and an Open probability of 0.52. Further, in assay [1], the Relative conductance of open state (%) came out at 86.4% and the open probability of the mAb bound state at -50 mV amounted to 0.4. For the same molecule, the mean inter-event interval at 1 nM mAb in assay [2] was 74.5 s. The molecule further returned a Kd in assay [3] of 11.2 nM. The molecule further gave a kon in assay [4] of 2.3e+07 M⁻¹ s⁻¹. In assay [5], this molecule displayed a koff of 0.25 s⁻¹.

B1: OmpG-PEG2-biotin (other)
chain: GEERNDWHFNIGAMYEIENVEGYGEDMDGLAEPSVYFNAANGPWRIALAYYQEGPVDYSAGKRGTWFDRPELEVHYQFLENDDFSFGLTGGFRNYGYHYVDEPGKDTANMQRWKIAPDWDVKLTDDLRFNGWLSMYKFANDLNTTGYADTRVETETGLQYTFNETVALRVNYYLERGFNMDDSRNNGEFSTQEIRAYLPLTLGNHSVTPYTRIGLDRWSNWDWQCDIEREGHDFNRVGLFYGYDFQNGLSVSLEYAFEWQDHDEGDSDKFHYAGVGVNYSF
modifications: maleimide-PEG2-biotin on Cys 224 (D224C, loop 6)
notes: also called OmpG-PEG2-Biotin pore; OmpG-biotin
With B1, the binding result in assay [6] is “no binding (tested: 1 µM)”.

As a reminder, the Kd is a measure of binding affinity in units of concentration. A high value points to weaker binding. The term kon denotes the rate constant with which the complex forms. A low value points to slower complex formation. In general, koff refers to the first-order rate constant of dissociation. A higher koff goes with a short-lived complex.
